Reference: patent publication US20200079861A1 (AGENUS, published 2020)

T1: human OX40 (on cells) (human, UniProt P43489 29-277)
T1 construct: also called huOX40; TNFRSF4
T1 sequence: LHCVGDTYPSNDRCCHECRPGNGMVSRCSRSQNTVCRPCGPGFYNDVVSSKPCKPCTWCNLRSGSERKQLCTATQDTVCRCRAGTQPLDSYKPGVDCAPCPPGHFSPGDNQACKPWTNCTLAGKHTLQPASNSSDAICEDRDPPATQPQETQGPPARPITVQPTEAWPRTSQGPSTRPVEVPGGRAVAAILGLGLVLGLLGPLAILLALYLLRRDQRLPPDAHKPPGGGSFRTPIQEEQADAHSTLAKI

T2: V1M cynomolgus GITR (on 1624-5 cells) (cynomolgus, UniProt Q9Y5U5 26-241 (human entry))
T2 chain: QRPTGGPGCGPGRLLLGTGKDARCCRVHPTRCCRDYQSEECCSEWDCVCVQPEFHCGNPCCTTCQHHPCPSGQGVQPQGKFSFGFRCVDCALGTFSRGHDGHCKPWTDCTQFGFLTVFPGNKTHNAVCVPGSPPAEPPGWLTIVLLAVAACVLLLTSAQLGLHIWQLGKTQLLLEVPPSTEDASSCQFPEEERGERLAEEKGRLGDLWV

T3: V1M/Q62P/S63G cynomolgus GITR (on 1624-5 cells) (cynomolgus, UniProt Q9Y5U5 26-241 (human entry))
T3 construct: V1M lies in the signal peptide; also called mutant cynomolgus GITR V1M/Q62P/S63G
T3 chain: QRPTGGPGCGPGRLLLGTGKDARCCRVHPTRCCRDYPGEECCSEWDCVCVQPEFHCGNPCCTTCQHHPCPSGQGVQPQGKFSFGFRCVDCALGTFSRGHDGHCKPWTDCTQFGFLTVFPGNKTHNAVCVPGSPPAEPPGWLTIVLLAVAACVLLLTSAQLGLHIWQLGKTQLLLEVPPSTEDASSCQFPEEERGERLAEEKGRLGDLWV

T4: GITR antigen (R&D systems, disulfide-linked homodimer; 689-GR) (human, UniProt Q9Y5U5 26-161, R-PE labeled in the suspension array assay; unlabeled and amine-coupled to the chip in SPR)
T4 construct: also called R-PE labeled GITR antigen
T4 sequence (looked up): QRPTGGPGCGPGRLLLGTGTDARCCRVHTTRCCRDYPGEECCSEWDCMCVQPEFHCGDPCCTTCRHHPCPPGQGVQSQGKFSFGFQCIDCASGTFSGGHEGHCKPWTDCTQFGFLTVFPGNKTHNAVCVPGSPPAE

T5: human GITR D60A mutant (on 1624-5 cells) (human, UniProt Q9Y5U5 26-241)
T5 chain: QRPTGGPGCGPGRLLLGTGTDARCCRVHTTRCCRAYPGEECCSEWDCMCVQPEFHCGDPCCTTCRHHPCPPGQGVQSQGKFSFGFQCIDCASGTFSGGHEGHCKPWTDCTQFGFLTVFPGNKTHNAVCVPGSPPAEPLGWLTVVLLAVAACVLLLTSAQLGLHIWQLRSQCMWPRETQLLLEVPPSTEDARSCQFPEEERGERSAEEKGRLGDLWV

T6: human GITR G63A mutant (on 1624-5 cells) (human, UniProt Q9Y5U5 26-241)
T6 chain: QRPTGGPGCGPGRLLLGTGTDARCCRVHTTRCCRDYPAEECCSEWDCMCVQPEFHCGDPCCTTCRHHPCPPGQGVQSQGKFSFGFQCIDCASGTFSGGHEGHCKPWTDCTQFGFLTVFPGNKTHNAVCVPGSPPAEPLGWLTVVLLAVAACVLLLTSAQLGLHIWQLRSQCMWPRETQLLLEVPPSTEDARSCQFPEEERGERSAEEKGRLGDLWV

T7: human GITR (on cells) (human, UniProt Q9Y5U5 26-241)
T7 construct: Swiss-Prot Q9Y5U5-1 is printed; also called huGITR; wild type human GITR
T7 sequence: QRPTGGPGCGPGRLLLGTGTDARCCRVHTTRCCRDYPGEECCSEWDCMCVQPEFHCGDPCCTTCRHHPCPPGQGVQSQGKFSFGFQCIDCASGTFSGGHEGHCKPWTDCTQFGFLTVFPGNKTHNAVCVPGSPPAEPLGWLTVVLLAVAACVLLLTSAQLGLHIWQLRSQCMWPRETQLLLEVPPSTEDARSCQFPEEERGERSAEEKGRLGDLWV


Assays:
[1] = molecular target: T1, human OX40 (on cells); assay: flow cytometry on Jurkat cells expressing OX40 only
Procedure: (§1) Hut102 cells (human T cell lymphoma, ATCC) were incubated for 72 hours in RPMI media, supplemented with 1 μg/ml phytohaemagglutinin (PHA) and 10% heat-inactivated FBS, at 37° C. and 5% CO₂ to induce GITR and OX40 expression. Cells ectopically expressing GITR or OX40 were generated by transduction of lentiviral vectors (EF1a promoter) into Jurkat cells. Stable clones were generated via single-cell sorting (FACS ARIA Fusion). Expression was verified by flow cytometry. For binding analysis, stable Jurkat cells or activated Hut102 cells were incubated with test antibodies (12-point dose titration, 0.01-10,000 ng/ml) diluted in FACS buffer (PBS, 2 mM EDTA, 0.5% BSA, pH 7.2) for 30 minutes at 4° C. Samples were washed two times in FACS buffer and then incubated with APC-conjugated mouse anti-human kappa detection antibody (Life Technologies, HP6062) for 30 minutes at 4° C. Samples were then washed two times and analyzed using the LSRFortessa flow cytometer (BD Biosciences). FACS plots were analyzed using a combination of FACS DIVA and WEHI Weasel software. Data were plotted with Graphpad Prism software.

[2] = molecular target: T2, V1M cynomolgus GITR (on 1624-5 cells); assay: flow cytometry on 1624-5 cells
Procedure: (§2) After washing, the cells were incubated with a secondary anti-IgG antibody if necessary for detection (APC conjugated; BD Cat no. 109-136-097) diluted in 100 μl FACS buffer (PBS+2% FCS) for 20 min at 4° C. The cells were then washed and acquired using a flow cytometer (BD Biosciences). The mean fluorescence intensity (MFI) value of the tested monoclonal antibody was divided by the MFI value of the polyclonal antibody, generating an MFI ratio (monoclonal antibody/polyclonal antibody) for individual GITR alanine mutants. An average MFI ratio (“AMFI ratio”) was calculated based on the individual MFI ratios for all the mutants. […] An individual MFI ratio that is between 30% and 60% of the AMFI ratio is represented by “+/−” in FIG. 10A. An individual MFI ratio that is below 30% of the AMFI ratio is represented by “−” in FIG. 10A.
(§3) As further evidence for the binding characteristics of the anti-GITR antibodies, the binding of the antibodies to cynomolgus GITR was compared. The immature protein of cynomolgus GITR comprises the amino acid sequence of SEQ ID NO:44.

[3] = molecular target: T3, V1M/Q62P/S63G cynomolgus GITR (on …); assay: flow cytometry on 1624-5 cells, 2 µg/ml antibody
Procedure: as §2, §3

[4] = molecular target: T4, GITR antigen (R&D systems, …); assay: SPR (BIAcore), GITR antigen immobilized on the chip, antibody at 300 nM
Procedure: Flow cell 2 contained GITR antigen in low density (667 RU), medium density was assessed in flow cell 3 (1595 RU) and in flow cell 4, high density was achieved (4371 RU). In flow cell 1, ovalbumin (1289 RU, Pierce ThermoFisher 77120) was immobilized for reference. Immobilization was performed according to a standard protocol from the manufacturer (GE Healthcare) for amine coupling (activation of surface with 0.4 M EDC and 0.1 M NHS, GE Healthcare Amine coupling kit, BR-1000-50). […] Afterwards anti-GITR antibodies were run through the different surfaces at a concentration of 300 nM (45 μg/ml) for 240 seconds at 5 μl/min. […] A dissociation time of 60 seconds was included before adding the competing antibody (300 nM, 5 μl/min).

[5] = molecular target: T5, human GITR D60A mutant (on 1624-5 cells); assay: flow cytometry on 1624-5 cells, 2 µg/ml antibody, MFI ratio to polyclonal antibody, mutant versus wild type
Procedure: (§4) An average MFI ratio (“AMFI ratio”) was calculated based on the individual MFI ratios for all the mutants. […] An individual MFI ratio that is between 30% and 60% of the AMFI ratio is represented by “+/−” in FIG. 10A. An individual MFI ratio that is below 30% of the AMFI ratio is represented by “−” in FIG. 10A.
(§5) All the mean fluorescence intensity (MFI) values were calculated as the mean of two measurements.

[6] = molecular target: T6, human GITR G63A mutant (on 1624-5 cells); assay: as above
Procedure: as §4, §5

[7] = molecular target: T4, GITR antigen (R&D systems, …); assay: Luminex suspension array, m6C8 captured on beads, R-PE labeled GITR antigen; data not shown
Procedure: (§6) The bead mixture and the antigen/antibody mixture were mixed 1:1 (20 μl from each) and incubated for one additional hour under shaking conditions (20° C., 650 rpm). Directly before the measurement, 40 μl of assay buffer was added to each well and analysis was performed using a Luminex® 200 system (Millipore) and a readout of 100 beads in 48 μl sample volume. Binding was determined using the MFI values of the non-competed control (100% binding, only assay buffer as competing compound).

[8] = molecular target: T7, human GITR (on cells); assay: flow cytometry on Jurkat cells expressing GITR only
Procedure: as §1

[9] = molecular target: T4, GITR antigen (R&D systems, …); assay: Luminex suspension array, competitor at 20 µg/ml pre-incubated with R-PE labeled GITR antigen; captured antibody 231-32-15
Procedure: as §6

| binding result [2] | binding result [3] | percentage of reduction in binding relative to wild type GITR [5] [%] | percentage of reduction in binding relative to wild type GITR [6] [%] | binding result [9] | Binder | further results |
| --- | --- | --- | --- | --- | --- | --- |
| – | – | – | – | – | pab2049 (antibody, human IgG1, V domains shown, also called bivalent monospecific antibody pab2049; pab2049w (same chains without light chain T109S)) VH: EVQLVESGGGLVQPGGSLKLSCAASGFTFSGSAMHWVRQASGKGLEWVGRIRSKANSYATAYAASVKGRFTISRDDSKNTAYLQMNSLKTEDTAVYYCTSGIYDSSGYDYWGQGTLVTVSS VL: not shown | binding result [1]: binds |
| no binding (tested: 2 µg/ml) | binds | 82 | 37 | – | chimeric parental 231-32-15 antibody (antibody, V domains shown, Chimeric antibody) VH: QVQLLQSGTELVRPGVSVKISCKGSGYTFTDYAMYWVKQSHAKSLEWIGVIRTYSGDVTYNQKFKDKATMTVDKSSSIAYMELARLSSEDSAIYYCAKSGTVRGFAYWGQGTLVTVSS VL: DIVMTQSPSSLTVTAGEKVIMSCKSSQSLLNSGNQKNYLTWYQQKPGQPPKLLIYWASTRESGVPDRFTGSGSGTDFTLTISSVQAEDLAVYHCQNDYSYPYTFGGGTKLEIK | binding result [4]: binds |
| – | – | 10 | – | – | m6C8 (antibody, V domains shown, Generated from the variable regions of antibody 6C8 of WO 2006/105021; also called murine antibody 6C8) VH: QVTLKESGPGILKPSQTLSLTCSFSGFSLSTSGMGVGWIRQPSGKGLEWLAHIWWDDDKYYNPSLKSQLTISKDTSRNQVFLKITSVDTADAATYYCARTRRYFPFAYWGQGTLVTVSS VL: DIVMTQSQKFMSTSVGDRVSVTCKASQNVGTNVAWYQQKPGQSPKALIYSASYRYSGVPDRFTGSGSGTDFTLTINNVHSEDLAEYFCQQYNTDPLTFGAGTKLEIK | binding result [7]: binds; percentage of increase in binding relative to wild type GITR [6]: 62% |
| no binding (tested: 2 µg/ml) | binds | – | 59 | binds | pab1876 (antibody, human IgG1, V domains shown, also called bivalent monospecific antibody pab1876; pab1876w (same chains without light chain T109S)) VH: QVQLVQSGAEVKKPGASVKVSCKGSGYTFTDYAMYWVRQAPGQGLEWIGVIRTYSGDVTYNQKFKDRATMTVDKSISTAYMELSRLRSDDTAVYYCAKSGTVRGFAYWGQGTLVTVSS VL: DIVMTQSPDSLAVSLGERATINCKSSQSLLNSGNQKNYLTWYQQKPGQPPKLLIYWASTRESGVPDRFSGSGSGTDFTLTISSLQAEDVAVYHCQNDYSYPYTFGQGTKLEIKR | binding result [8]: binds |
| – | – | – | – | binds | pab1875 (antibody, V domains shown) VH: QVQLVQSGAEVKKPGASVKVSCKGSGYTFTDYAMYWVRQAPGQGLEWIGVIRTYSGDVTYNQKFKDRATMTVDKSISTAYMELSRLRSDDTAVYYCAKSGTVRGFAYWGQGTLVTVSS VL: DIVMTQSPPTLSLSPGERVTLSCKSSQSLLNSGNQKNYLTWYQQKPGQAPRLLIYWASTRESGIPARFSGSGSGTDFTLTISSLQPEDFAVYHCQNDYSYPYTFGQGTKLEIK | – |
